Here are results for eleven substances from paper PMC11912399.

What is called pKd is the negative decadic logarithm of the Kd, by convention in mol/L. Lower therefore signals a high Kd.

pKd: −log10 of the molar value.

The target of assay [1] is CrImpαΔIBB (Chlamydomonas reinhardtii importin α IPA1, Cre04.g215850, lacking the autoinhibitory IBB domain) (Chlamydomonas reinhardtii). The experiment in a line: ELISA. (An ELISA detects its analyte on a solid surface through an enzyme-linked reagent.)
Assay [2] shares this target. Description: MST.

Substance “DC Cas9 (Cas9 with the VirD2^O NLS fused to its C-terminus) (enzyme)” gave a pKd in assay [1] of 8.30. In the case of “DN Cas9 (Cas9 with the VirD2^O NLS fused to its N-terminus) (enzyme)”, the pKd in assay [2] was 8.35; in assay [1], 8.32. In assay [1], “D^K1AR2AN Cas9 (DN Cas9 with K1A and R2A in the VirD2^O NLS) (enzyme)” gave a pKd of 7.88. With “D^K1AR2AR15AN Cas9 (DN Cas9 with K1A, R2A and R15A in the VirD2^O NLS) (enzyme)”, the pKd in assay [1] was 7.37. “D^NopN Cas9 (Cas9 with the nopaline-type VirD2^N NLS fused to its N-terminus) (enzyme)”: the negative-log Kd (pKd) in assay [1] was 8.10. Still for that read-out and setting: to “D^R15AN Cas9 (DN Cas9 with R15A in the VirD2^O NLS) (enzyme)” belongs 7.82; to “EC Cas9 (Cas9 with the VirE2^O NLS fused to its C-terminus) (enzyme)”, 8.16; to “EN Cas9 (Cas9 with the VirE2^O NLS fused to its N-terminus) (enzyme)”, 8.11. Still for that read-out and setting: to “PN Cas9 (Cas9 with the putative endogenous CrPAP1 NLS fused to its N-terminus) (enzyme)” belongs 7.77; to “SC Cas9 (Cas9 with the SV40TAg NLS fused to its C-terminus) (enzyme)”, 8.04. As for “SN Cas9 (Cas9 with the SV40TAg NLS fused to its N-terminus) (enzyme)”, the figures for the pKd in assay [2] and in assay [1] were 7.94 and 8.06, respectively.
